Experimental data taken from the DeepSol protein solubility set.

Assay: soluble on expression in E. coli; label from the status in PepcDB or PDB records
With “MRTATSTSPATGTPAPVPSRTPDVTVTVIVYNDAGRLPRAVASALRQSHANIEVVISDDHSTDATEEVARELAAHDPRVVYLRLPENSGGCSAPRNRALEIARAPYLMFLDSDDELPERAVEVLLAAHRERDLDFAMGAVHRIREDGGRRTTWMPHLVAERRTLDGIEADPRLLFEHLSTSKMYARAFLDRHGLRFPEGIHYEDQLFSAQAYCLAKTFTVVPEPVYRWYIAPYADADSASISNQRHKLTNVRDRVHVQRLIDAFLAESGHEALREDKDFKFLKHDFRMYAGDLPYRDDTWLASFADLMNPYLDTLAEGAYARLPRAERVVLRLLRDRRLSDVRTAARGLGHDVAPRRVTPDEQSGRVYWGEEVPASPESRRELDLTDLDLDTRPFFTALLRHEITEITRGPGASVDLTVRTYDPALRLPVGPQRAVLHLSPGPRRLTVPFRLSPVRPGLFEGRVRLDLAAARLPLHGFAGTRHPVLRLRHRGRTHTGILLAPLAFPPLTARVPYRTGLTPHRVTLRPEGHNPGRLQITWQPVGTTAKILGPAARRLSTPRTRRAARLLSNILRLEHHHHHH” the “soluble on expression in E. coli” value was “soluble”. For “MRTEKEMIDLIMNTAKEDERIRAVIMNGSRVNPNVKKDCFQDFDIIYAVKDIRSFTSNHNWIHRFGEIMIVQMPEEMSLIPADEDGKFPYLMQFMDGNRIDLTLAPVELINNFVRQDSLSKLLLDKDNCMEGFPPASDKDYLIKKPTEKEFLDCCNEFWWCSTNVAKGLWREELSYVKGMLDGPVRDMLIVMLEWHIGMKTDFIVNAGKFGKHFEKYIEKDMWVQFKRTFSNAEYENIWESFFDMGNLFREVANEIANAYGYPYPQGDDDRVTSYLKHVKALPKDSTSIY”, the “soluble on expression in E. coli” value was “not soluble”. In the case of “MRTKDIYRLELRKIKIDKRMMKRILRLGIPSGIQQSIISLSNVVVQANVNIFGSTVMAGFGAYNKVDGFVVLPMQSFCMAATTFTGQNIGAGKPERIREG”, the “soluble on expression in E. coli” value is reported as “not soluble”. For “MRTLITGASGQLGIELSRLLSERHEVIKVYNSSEIQGGYKLDLTDFPRLEDFIIKKRPDVIINAAAMTDVDKCEIEKEKAYKINAEAVRHIVRAGKVIDSYIVHISTDYVFDGEKGNYKEEDIPNPINYYGLSKLLGETFALQDDSLIIRTSGIFRNKGFPIYVYKTLKEGKTVFAFKGYYSPISARKLASAILELLELRKTGIIHVAGERISRFELALKIKEKFNLPGEVKEVDEVRGWIAKRPYDSSLDSSRARKILSTDFYTLDLDGMVV”, the “soluble on expression in E. coli” value was “soluble”. With “MRTLRIAQYSVLTVGFAIYMYRLIEEIPIDIRNLNSDSLEGIINSDELCDVTVSNRNRGLLVRNDSLDLDILKAKFTTFFSKR” the “soluble on expression in E. coli” value was “not soluble”. For “MRTTYREHLDAFAQDLITMCDTVAAVVEGASTGLLEGSLQSAQHALSLSDELDEVKNRATKRAVQLLSLEAPVARDLRQIVSSIYIIEDFDRMASLAMHIASMARRRHPDLVVPEPIRGYFHEMARLCTEMSDKTRSVLVDPDADVAIVLAADDDAIDDIHEHIMTLLTKKEWPFSTRAAVEVTLLARYYERFADHTVNVAAQIVYLTTGLMPEEYKKKRDDGFEPDEMEARFAQLEEQFANYDWPKPAD”, the “soluble on expression in E. coli” value was “not soluble”. In the case of “MRVAFCLYKYFPFGGLQRDFMRIAQTVAARGHQVRVYTQSWEGECPDNFELIRVPVKSRTNHGRNAEYYAWVQHHLRDHPVDRVVGFNKMPGLDVYYAADVCYAEKVAQEKGFFYRLTSRYRHYAAFERATFEHGKPTQLLMLTNKQIADFQKHYQTEAERFHILPPGIYPDRKYSQQIPNSRQIYRQKNGISEQQKLLLQVGSDFTRKGVDRSIEALASLPESLRQNTVLYVVGQDKPKKFAALAERSGVGTNVHFFSGRNDIAELMAAADLLLHPAYQEAAGIVLLEAITAGLPVLTTAVCGYAHYIVDANCGEAMTEPFRQDALNEVLLKALTQPSLRNAWAENARYYADTQDLYSLPEKAADIITGDLDG”, the “soluble on expression in E. coli” value is reported as “not soluble”. For “MRVHKVKFLNQHELTKLLALLDLDHGLDWDYFLLLIAKTGLRFGEALGVTPMDFDMAKLTLTINKTWDYKSATGSFAETKNTASVRKVPLDWQVAMQFAAQIKSLPQDKPIFVTDGQRVYNETANDILERKCKRASIPVISIHGLRHTHASLLLYAGVSVGSVARRLGHANMSTTQKTYLHILEHHHHHH”, the “soluble on expression in E. coli” value was “not soluble”. With “MRVVVTGATGFVGQQVVKALSDRGDQVVALVRSPGKAAKQFAGVPRVEWLGYTPKAAGDWFSALEGADAVIHLAGEPLANGRWTPQRKQEIYDSRVVGTQQLVQAIAQCQQRPRVLVSTSAIGYYGTSDTETFVETHAAGNDFLAKVCGDWEAAAQGVTELGVRLVILRFGIVLGEQGALAKLLLPFQLYLGGPLGSGQQWFSWIHQQDLVRLILTAVDQVGMQGVYNATAPEPLRMADFCRILAEVMQRPSWLPVPAPVLQLLLGEGADVVLKGQRVLPERTLATGFEFHYPNAKTALTNLLKPRYTEGSRLEHHHHHH” the “soluble on expression in E. coli” value was “soluble”.
